Data published in CN113512118A.

Target: sCD146蛋白 (CD146胞外区蛋白, Sino Biological 10115-H08H-20) (human) (UniProt P43121)
Test: BLI (Octet Red96), against parental AA98

Sequence of UniProt P43121 (P43121 24-559): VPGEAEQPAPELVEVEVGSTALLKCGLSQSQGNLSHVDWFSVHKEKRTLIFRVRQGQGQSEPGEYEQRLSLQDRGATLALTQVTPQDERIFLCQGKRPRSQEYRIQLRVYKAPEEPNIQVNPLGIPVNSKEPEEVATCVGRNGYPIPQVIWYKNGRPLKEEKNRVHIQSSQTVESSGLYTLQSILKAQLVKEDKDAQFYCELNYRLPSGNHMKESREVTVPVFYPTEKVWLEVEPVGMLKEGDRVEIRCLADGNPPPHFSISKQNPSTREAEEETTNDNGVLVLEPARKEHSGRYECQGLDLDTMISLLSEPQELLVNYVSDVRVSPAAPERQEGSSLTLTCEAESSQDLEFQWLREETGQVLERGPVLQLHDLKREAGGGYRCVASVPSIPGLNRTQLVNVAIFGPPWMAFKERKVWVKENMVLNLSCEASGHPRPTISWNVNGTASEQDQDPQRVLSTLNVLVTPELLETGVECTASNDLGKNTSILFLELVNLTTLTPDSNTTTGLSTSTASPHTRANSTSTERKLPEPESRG

Substance: H13-112抗体 (AA98 variant, heavy chain I28K and light chain L51Y) (antibody)
- fold increase of affinity against AA98: 10 fold
